From US10738094B2, “Peptides and combination of peptides for use in immunotherapy against ovarian cancer and other cancers” (immatics biotechnologies GmbH, priority 2015, dated 2020) come the findings set out here.

The target of the experiment is HLA-A*02:01 (Homo sapiens, UniProt P04439, D140Y/D185E/D98H/E176V/E277Q/G131W/G231S/I119V/I121R/I166T/I218V/L300P/L318F/N151K/N90K/P208A/P217A/Q86G/Q94H/R138H/R169H/T345S). The experiment in a line: MHC binding assay (UV-ligand exchange, beta2m ELISA). Conditions: binding to HLA-A*02:01 ranged by peptide exchange yield (UV-ligand exchange, β2m ELISA). From the text:
Candidate peptides for T cell based therapies according to the present invention were further tested for their MHC binding capacity (affinity). The individual peptide-MHC complexes were produced by UV-ligand exchange, where a UV-sensitive peptide is cleaved upon UV-irradiation, and exchanged with the peptide of interest as analyzed. Only peptide candidates that can effectively bind and stabilize the peptide-receptive MHC molecules prevent dissociation of the MHC complexes. To determine the yield of the exchange reaction, an ELISA was performed based on the detection of the light chain (β2m) of stabilized MHC complexes. The assay was performed as generally described in Rodenko et al. (Rodenko et al., 2006).
96 well MAXISorp plates (NUNC) were coated over night with 2 ug/ml streptavidin in PBS at room temperature, washed 4× and blocked for 1 h at 37° C. in 2% BSA containing blocking buffer. […] Peptide-MHC monomers of the UV-exchange reaction were diluted 100 fold in blocking buffer. Samples were incubated for 1 h at 37° C., washed four times, incubated with 2 ug/ml HRP conjugated anti-β2m for 1 h at 37° C., washed again and detected with TMB solution that is stopped with […]. Absorption was measured at 450 nm. Candidate peptides that show a high exchange yield (preferably higher than 50%, most preferred higher than 75%) are generally preferred for a generation and production of antibodies or fragments thereof, and/or T cell receptors or fragments thereof, as they show sufficient avidity to the MHC molecules and prevent dissociation of the MHC complexes.
For the substance “492 (SLFDGFADGLGV; listed as Homo sapiens) [compound 492]”, the Peptide exchange result is given as ““+++” (≥50 = +++)”.
On to “349 (SLTEYLQNV; listed as Homo sapiens) [compound 349]”, for which the Peptide exchange result is recorded as ““++++” (≥75% = ++++)”.
Consider “101 (ILVGGGALATV; listed as Homo sapiens) [compound 101]”, for which the Peptide exchange result is reported as ““+++” (≥50 = +++)”.
Take “356 (KLLGKLPEL; listed as Homo sapiens) [compound 356]”: the Peptide exchange result is reported as ““+++” (≥50 = +++)”.
Take “159 (GLVGNPLPSV; listed as Homo sapiens) [compound 159]”: the Peptide exchange entry is ““++++” (≥75% = ++++)”.
On to “382 (ALQNYIKEA; listed as Homo sapiens) [compound 382]”, for which the Peptide exchange entry is given as ““++” (≥20% = ++)”.
For the substance “621 (VLMDRLPSLL; listed as Homo sapiens) [compound 621]”, the Peptide exchange entry is ““++++” (≥75% = ++++)”.
Turning to “248 (FLFPNQYVDV; listed as Homo sapiens) [compound 248]”, the Peptide exchange result is recorded as ““+++” (≥50 = +++)”.
“387 (ALFQATAEV; listed as Homo sapiens) [compound 387]”: the Peptide exchange result is given as ““++++” (≥75% = ++++)”.
As for “10 (FLATFPLAAV; listed as Homo sapiens) [compound 10]”, the Peptide exchange entry is listed as ““++++” (≥75% = ++++)”.
As to “479 (SLFGNSGILENV; listed as Homo sapiens) [compound 479]”, the Peptide exchange result was ““+++” (≥50 = +++)”.
For the substance “82 (FLSSVTYNL; listed as Homo sapiens) [compound 82]”, the Peptide exchange result is ““+++” (≥50 = +++)”.
As for “26 (ALLELAEEL; listed as Homo sapiens) [compound 26]”, the Peptide exchange result was ““+++” (≥50 = +++)”.
As for “57 (TLAELQPPVQL; listed as Homo sapiens) [compound 57]”, the entry is ““+++” (≥50 = +++)”; as for “564 (TVTNAVVTV; listed as Homo sapiens) [compound 564]”, ““+++” (≥50 = +++)”; as for “47 (ILLSVPLLVV; listed as Homo sapiens) [compound 47]”, ““++” (≥20% = ++)”.
As for “329 (FLVTLNNVEV; listed as Homo sapiens) [compound 329]”, the entry is ““++++” (≥75% = ++++)”.
On to “196 (YLYSVEIKL; listed as Homo sapiens) [compound 196]”, for which the Peptide exchange entry was ““++++” (≥75% = ++++)”.
Turning to “24 (SLSDGLEEV; listed as Homo sapiens) [compound 24]”, the Peptide exchange entry is on record as ““++” (≥20% = ++)”.
As to “83 (ILAPTVMMI; listed as Homo sapiens) [compound 83]”, the Peptide exchange entry is listed as ““+++” (≥50 = +++)”.
As for “442 (GLLGGGGVLGV; listed as Homo sapiens) [compound 442]”, the entry is ““+++” (≥50 = +++)”; as for “350 (ALLDVTHSELTV; listed as Homo sapiens) [compound 350]”, ““+++” (≥50 = +++)”.
In the case of “575 (YLISQVEGHQV; listed as Homo sapiens) [compound 575]”, the Peptide exchange result is reported as ““+++” (≥50 = +++)”.
For the substance “321 (GLFEDVTQPGILL; listed as Homo sapiens) [compound 321]”, the Peptide exchange entry is reported as ““++++” (≥75% = ++++)”.
In the case of “74 (ALLDPEVLSIFV; listed as Homo sapiens) [compound 74]”, the Peptide exchange result is given as ““+++” (≥50 = +++)”.
“589 (KLYPQLPAEI; listed as Homo sapiens) [compound 589]”: the Peptide exchange result is ““+++” (≥50 = +++)”.
On to “618 (VLFDSESIGIYV; listed as Homo sapiens) [compound 618]”, for which the Peptide exchange result is ““+++” (≥50 = +++)”.
As for “66 (FLDENIGGVAV; listed as Homo sapiens) [compound 66]”, the entry is ““+++” (≥50 = +++)”; as for “12 (SLWPDPMEV; listed as Homo sapiens) [compound 12]”, ““+++” (≥50 = +++)”.
